Laboratory results as given in PMC6181919, “A cysteine-based molecular code informs collagen C-propeptide assembly” (Nature Communications, 2018).

Assays:
[1] = molecular target: the molecule itself; test: non-reducing SDS-PAGE immunoblot; cell lysate of transfected HEK293 cells (protein not secreted), non-reducing; denaturing, shows disulfide-linked species only
[2] = molecular target: the molecule itself; test: non-reducing SDS-PAGE immunoblot; conditioned media of transfected HEK293 cells, treated with 100 mM iodoacetamide, boiled in SDS, 12% gel, non-reducing; denaturing, shows disulfide-linked species only; two-colour detection of HA and FLAG
[3] = molecular target: the molecule itself; test: AUC; sedimentation equilibrium, 25 °C, 20 mM Bis-Tris propane pH 7, 150 mM NaCl, without Ca^2+; equilibrium constants are of monomer to dimer
[4] = molecular target: the molecule itself; test: AUC; sedimentation equilibrium, 25 °C, 20 mM Bis-Tris propane pH 7, 150 mM NaCl, with 0.5 mM CaCl2; monomer to trimer
[5] = molecular target: the molecule itself; test: SEC; size exclusion chromatography in the presence and absence of Ca^2+, compared to wild-type C-Proα1(I)

B1: wild-type, HA-tagged C-Proα2(XI) (domain or fragment, human, UniProt P13942 1501-1736, looked up)
chain: IQPLPIQMPKKTRRSVDGSRLMQEDEAIPTGGAPGSPGGLEEIFGSLDSLREEIEQMRRPTGTQDSPARTCQDLKLCHPELPDGEYWVDPNQGCARDAFRVFCNFTAGGETCVTPRDDVTQFSYVDSEGSPVGVVQLTFLRLLSVSAHQDVSYPCSGAARDGPLRLRGANEDELSPETSPYVKEFRDGCQTQQGRTVLEVRTPVLEQLPVLDASFSDLGAPPRRGGVLLGPVCFMG
notes: C-propeptide (C-Pro) domain of human procollagen alpha2(XI); gene bought from Genewiz; source: HEK293, transfected, not secreted, in cell lysate; not shown: HA, N-terminal, kept
Which “stoichiometry N” value [1] does the source give for B1 here?
The value was 3.

B2: wild-type, HA-tagged C-Proα1(I) (C-propeptide domain of human Colα1(I)) (domain or fragment)
chain: DDANVVRDRDLEVDTTLKSLSQQIENIRSPEGSRKNPARTCRDLKMCHSDWKSGEYWIDPNQGCNLDAIKVFCNMETGETCVYPTQPSVAQKNWYISKNPKDKRHVWFGESMTDGFQFEYGGQGSDPADVAIQLTFLRLMSTEASQNITYHCKNSVAYMDQQTGNLKKALLLQGSNEIEIRAEGNSRFTYSVTVDGCTSHTGAWGKTVIEYKTTKTSRLPIIDVAPLDVGAPDQEFGFDVGPVCFL
notes: C-propeptide (C-Pro) domain of human procollagen alpha1(I), from the endogenous C-proteinase cleavage site to the C-terminus; Secreted alone it is a disulfide-linked homotrimer; also called wild-type C-Proα1(I); Colα1(I) C-Pro; not shown: HA, N-terminal, kept
How did the “stoichiometry N” value [2] turn out when B2 was run?
The value was 3.

B3: purified C2S (Cys1265Ser) C-Proα1(I), His tag cleaved (domain or fragment, human)
chain: DDANVVRDRDLEVDTTLKSLSQQIENIRSPEGSRKNPARTCRDLKMSHSDWKSGEYWIDPNQGCNLDAIKVFCNMETGETCVYPTQPSVAQKNWYISKNPKDKRHVWFGESMTDGFQFEYGGQGSDPADVAIQLTFLRLMSTEASQNITYHCKNSVAYMDQQTGNLKKALLLQGSNEIEIRAEGNSRFTYSVTVDGCTSHTGAWGKTVIEYKTTKTSRLPIIDVAPLDVGAPDQEFGFDVGPVCFL
modifications: glycosylated (a single N-glycosylation site in the polypeptide; site not given)
notes: C-propeptide (C-Pro) domain of human procollagen alpha1(I), from the endogenous C-proteinase cleavage site to the C-terminus; also called C2S C-Proα1(I); source: HEK293 Freestyle, transfected, secreted, purified (Ni-NTA, HRV-3C cleavage, second Ni-NTA, Superdex 200)
For B3, which Ka [3] is on record?
The Ka was 76300 M⁻¹.

And the “stoichiometry N” value [3]?
The value was 2.

What about the “stoichiometry N” value [4] of the same protein?
The value was 3.

B4: Asp1277His C-Proα1(I) (domain or fragment, human)
chain: DDANVVRDRDLEVDTTLKSLSQQIENIRSPEGSRKNPARTCRDLKMCHSDWKSGEYWIHPNQGCNLDAIKVFCNMETGETCVYPTQPSVAQKNWYISKNPKDKRHVWFGESMTDGFQFEYGGQGSDPADVAIQLTFLRLMSTEASQNITYHCKNSVAYMDQQTGNLKKALLLQGSNEIEIRAEGNSRFTYSVTVDGCTSHTGAWGKTVIEYKTTKTSRLPIIDVAPLDVGAPDQEFGFDVGPVCFL
notes: C-propeptide (C-Pro) domain of human procollagen alpha1(I) with the osteogenesis imperfecta-causing substitution Asp1277His
How did the “stoichiometry N” value [5] turn out when B4 was run?
Its value is 2.

B5: purified wild-type C-Proα1(I), His tag cleaved (domain or fragment, human)
chain: DDANVVRDRDLEVDTTLKSLSQQIENIRSPEGSRKNPARTCRDLKMCHSDWKSGEYWIDPNQGCNLDAIKVFCNMETGETCVYPTQPSVAQKNWYISKNPKDKRHVWFGESMTDGFQFEYGGQGSDPADVAIQLTFLRLMSTEASQNITYHCKNSVAYMDQQTGNLKKALLLQGSNEIEIRAEGNSRFTYSVTVDGCTSHTGAWGKTVIEYKTTKTSRLPIIDVAPLDVGAPDQEFGFDVGPVCFL
modifications: glycosylated (a single N-glycosylation site in the polypeptide; site not given)
notes: C-propeptide (C-Pro) domain of human procollagen alpha1(I), from the endogenous C-proteinase cleavage site to the C-terminus; The HA/FLAG vectors were modified to carry a cleavable 6x-His tag with an HRV-3C site; Interstrand disulfide-linked homotrimer; source: HEK293 Freestyle, transfected, secreted, purified (Ni-NTA, HRV-3C cleavage, second Ni-NTA, Superdex 200)
B5 was tested. Which “stoichiometry N” value [3] did it give?
Its value is 3.
